Experimental findings from patent publication US20250171562A1 are described below.

B1: CIgG4F1A1(G4S)3 (Fc fusion)
chain 1: GPPCPPCPAPEFLGGPSVFLFPPKPKDTLMISRTPEVTCVVVDVSQEDPEVQFNWYVDGVEVHNAKTKPREEQFNSTYRVVSVLTVLHQDWLNGKEYKCKVSNKGLPSSIEKTISKAKGQPREPQVYTLPPCQEEMTKNQVSLWCLVKGFYPSDIAVEWESNGQPENNYKTTPPVLDSDGSFFLYSRLTVDKSRWQEGNVFSCSVMHEALHNHYTQKSLSLSLGKGGGGSGGGGSGGGGSDVQLQESGGGLVQAGGSLKLSCAASGGSLSRYDMGWFRQAPGKEREFVARISWSGTTKYYADAVKGRFAISRDNAKNTVYLQMNSLKPEDTAVYYCAAAFYGNRGYYDVNAYTSSGQGTQVTVS
chain 2: GPPCPPCPAPEFLGGPSVFLFPPKPKDTLMISRTPEVTCVVVDVSQEDPEVQFNWYVDGVEVHNAKTKPREEQFNSTYRVVSVLTVLHQDWLNGKEYKCKVSNKGLPSSIEKTISKAKGQPREPQVCTLPPSQEEMTKNQVSLSCAVKGFYPSDIAVEWESNGQPENNYKTTPPVLDSDGSFFLVSRLTVDKSRWQEGNVFSCSVMHEALHNHYTQKSLSLSLGKGGGGSGGGGSGGGGSEVQLLESGGGLVQPGGSLRLSCAASGFTFGNYDMAWVRQAPGKRPEWVSSIDTGGDITHYADSVKGRFTISRDNAKNTLYLQMNSLRPEDTAVYWCATDEEYALGPNEFDYYGQGTLVTVSS
B2: NIgG4F2A1(G4S)3 (Fc fusion)
chain 1: DVQLQESGGGLVQAGGSLKLSCAASGGSLSRYDMGWFRQAPGKEREFVARISWSGDTKYYADAVEGRFAISRDNAQNTVYLQMNSLKPEDTAVYYCAVALYGNRGYYDVNTYSYWGQGTRVTVSGGGGSGGGGSGGGGSGPPCPPCPAPEFLGGPSVFLFPPKPKDTLMISRTPEVTCVVVDVSQEDPEVQFNWYVDGVEVHNAKTKPREEQFNSTYRVVSVLTVLHQDWLNGKEYKCKVSNKGLPSSIEKTISKAKGQPREPQVYTLPPCQEEMTKNQVSLWCLVKGFYPSDIAVEWESNGQPENNYKTTPPVLDSDGSFFLYSRLTVDKSRWQEGNVFSCSVMHEALHNHYTQKSLSLSLGK
chain 2: EVQLLESGGGLVQPGGSLRLSCAASGFTFGNYDMAWVRQAPGKRPEWVSSIDTGGDITHYADSVKGRFTISRDNAKNTLYLQMNSLRPEDTAVYWCATDEEYALGPNEFDYYGQGTLVTVSSGGGGSGGGGSGGGGSGPPCPPCPAPEFLGGPSVFLFPPKPKDTLMISRTPEVTCVVVDVSQEDPEVQFNWYVDGVEVHNAKTKPREEQFNSTYRVVSVLTVLHQDWLNGKEYKCKVSNKGLPSSIEKTISKAKGQPREPQVCTLPPSQEEMTKNQVSLSCAVKGFYPSDIAVEWESNGQPENNYKTTPPVLDSDGSFFLVSRLTVDKSRWQEGNVFSCSVMHEALHNHYTQKSLSLSLGK
B3: NIgG4F2A1(RS) (Fc fusion)
chain 1: DVQLQESGGGLVQAGGSLKLSCAASGGSLSRYDMGWFRQAPGKEREFVARISWSGDTKYYADAVEGRFAISRDNAQNTVYLQMNSLKPEDTAVYYCAVALYGNRGYYDVNTYSYWGQGTRVTVSRSGPPCPPCPAPEFLGGPSVFLFPPKPKDTLMISRTPEVTCVVVDVSQEDPEVQFNWYVDGVEVHNAKTKPREEQFNSTYRVVSVLTVLHQDWLNGKEYKCKVSNKGLPSSIEKTISKAKGQPREPQVYTLPPCQEEMTKNQVSLWCLVKGFYPSDIAVEWESNGQPENNYKTTPPVLDSDGSFFLYSRLTVDKSRWQEGNVFSCSVMHEALHNHYTQKSLSLSLGK
chain 2: EVQLLESGGGLVQPGGSLRLSCAASGFTFGNYDMAWVRQAPGKRPEWVSSIDTGGDITHYADSVKGRFTISRDNAKNTLYLQMNSLRPEDTAVYWCATDEEYALGPNEFDYYGQGTLVTVSSRSGPPCPPCPAPEFLGGPSVFLFPPKPKDTLMISRTPEVTCVVVDVSQEDPEVQFNWYVDGVEVHNAKTKPREEQFNSTYRVVSVLTVLHQDWLNGKEYKCKVSNKGLPSSIEKTISKAKGQPREPQVCTLPPSQEEMTKNQVSLSCAVKGFYPSDIAVEWESNGQPENNYKTTPPVLDSDGSFFLVSRLTVDKSRWQEGNVFSCSVMHEALHNHYTQKSLSLSLGK
B4: NIgG4F2A1(G4S)2 (Fc fusion)
chain 1: DVQLQESGGGLVQAGGSLKLSCAASGGSLSRYDMGWFRQAPGKEREFVARISWSGDTKYYADAVEGRFAISRDNAQNTVYLQMNSLKPEDTAVYYCAVALYGNRGYYDVNTYSYWGQGTRVTVSGGGGSGGGGSGPPCPPCPAPEFLGGPSVFLFPPKPKDTLMISRTPEVTCVVVDVSQEDPEVQFNWYVDGVEVHNAKTKPREEQFNSTYRVVSVLTVLHQDWLNGKEYKCKVSNKGLPSSIEKTISKAKGQPREPQVYTLPPCQEEMTKNQVSLWCLVKGFYPSDIAVEWESNGQPENNYKTTPPVLDSDGSFFLYSRLTVDKSRWQEGNVFSCSVMHEALHNHYTQKSLSLSLGK
chain 2: EVQLLESGGGLVQPGGSLRLSCAASGFTFGNYDMAWVRQAPGKRPEWVSSIDTGGDITHYADSVKGRFTISRDNAKNTLYLQMNSLRPEDTAVYWCATDEEYALGPNEFDYYGQGTLVTVSSGGGGSGGGGSGPPCPPCPAPEFLGGPSVFLFPPKPKDTLMISRTPEVTCVVVDVSQEDPEVQFNWYVDGVEVHNAKTKPREEQFNSTYRVVSVLTVLHQDWLNGKEYKCKVSNKGLPSSIEKTISKAKGQPREPQVCTLPPSQEEMTKNQVSLSCAVKGFYPSDIAVEWESNGQPENNYKTTPPVLDSDGSFFLVSRLTVDKSRWQEGNVFSCSVMHEALHNHYTQKSLSLSLGK
B5: CIgG4F1A1(G4S)1 (Fc fusion)
chain 1: GPPCPPCPAPEFLGGPSVFLFPPKPKDTLMISRTPEVTCVVVDVSQEDPEVQFNWYVDGVEVHNAKTKPREEQFNSTYRVVSVLTVLHQDWLNGKEYKCKVSNKGLPSSIEKTISKAKGQPREPQVYTLPPCQEEMTKNQVSLWCLVKGFYPSDIAVEWESNGQPENNYKTTPPVLDSDGSFFLYSRLTVDKSRWQEGNVFSCSVMHEALHNHYTQKSLSLSLGKGGGGSDVQLQESGGGLVQAGGSLKLSCAASGGSLSRYDMGWFRQAPGKEREFVARISWSGTTKYYADAVKGRFAISRDNAKNTVYLQMNSLKPEDTAVYYCAAAFYGNRGYYDVNAYTSSGQGTQVTVS
chain 2: GPPCPPCPAPEFLGGPSVFLFPPKPKDTLMISRTPEVTCVVVDVSQEDPEVQFNWYVDGVEVHNAKTKPREEQFNSTYRVVSVLTVLHQDWLNGKEYKCKVSNKGLPSSIEKTISKAKGQPREPQVCTLPPSQEEMTKNQVSLSCAVKGFYPSDIAVEWESNGQPENNYKTTPPVLDSDGSFFLVSRLTVDKSRWQEGNVFSCSVMHEALHNHYTQKSLSLSLGKGGGGSEVQLLESGGGLVQPGGSLRLSCAASGFTFGNYDMAWVRQAPGKRPEWVSSIDTGGDITHYADSVKGRFTISRDNAKNTLYLQMNSLRPEDTAVYWCATDEEYALGPNEFDYYGQGTLVTVSS
B6: CIgG4F1A1(G4S)2 (Fc fusion)
chain 1: GPPCPPCPAPEFLGGPSVFLFPPKPKDTLMISRTPEVTCVVVDVSQEDPEVQFNWYVDGVEVHNAKTKPREEQFNSTYRVVSVLTVLHQDWLNGKEYKCKVSNKGLPSSIEKTISKAKGQPREPQVYTLPPCQEEMTKNQVSLWCLVKGFYPSDIAVEWESNGQPENNYKTTPPVLDSDGSFFLYSRLTVDKSRWQEGNVFSCSVMHEALHNHYTQKSLSLSLGKGGGGSGGGGSDVQLQESGGGLVQAGGSLKLSCAASGGSLSRYDMGWFRQAPGKEREFVARISWSGTTKYYADAVKGRFAISRDNAKNTVYLQMNSLKPEDTAVYYCAAAFYGNRGYYDVNAYTSSGQGTQVTVS
chain 2: GPPCPPCPAPEFLGGPSVFLFPPKPKDTLMISRTPEVTCVVVDVSQEDPEVQFNWYVDGVEVHNAKTKPREEQFNSTYRVVSVLTVLHQDWLNGKEYKCKVSNKGLPSSIEKTISKAKGQPREPQVCTLPPSQEEMTKNQVSLSCAVKGFYPSDIAVEWESNGQPENNYKTTPPVLDSDGSFFLVSRLTVDKSRWQEGNVFSCSVMHEALHNHYTQKSLSLSLGKGGGGSGGGGSEVQLLESGGGLVQPGGSLRLSCAASGFTFGNYDMAWVRQAPGKRPEWVSSIDTGGDITHYADSVKGRFTISRDNAKNTLYLQMNSLRPEDTAVYWCATDEEYALGPNEFDYYGQGTLVTVSS
B7: CIgG4F2A1(RS) (Fc fusion)
chain 1: GPPCPPCPAPEFLGGPSVFLFPPKPKDTLMISRTPEVTCVVVDVSQEDPEVQFNWYVDGVEVHNAKTKPREEQFNSTYRVVSVLTVLHQDWLNGKEYKCKVSNKGLPSSIEKTISKAKGQPREPQVYTLPPCQEEMTKNQVSLWCLVKGFYPSDIAVEWESNGQPENNYKTTPPVLDSDGSFFLYSRLTVDKSRWQEGNVFSCSVMHEALHNHYTQKSLSLSLGKRSDVQLQESGGGLVQAGGSLKLSCAASGGSLSRYDMGWFRQAPGKEREFVARISWSGDTKYYADAVEGRFAISRDNAQNTVYLQMNSLKPEDTAVYYCAVALYGNRGYYDVNTYSYWGQGTRVTVS
chain 2: GPPCPPCPAPEFLGGPSVFLFPPKPKDTLMISRTPEVTCVVVDVSQEDPEVQFNWYVDGVEVHNAKTKPREEQFNSTYRVVSVLTVLHQDWLNGKEYKCKVSNKGLPSSIEKTISKAKGQPREPQVCTLPPSQEEMTKNQVSLSCAVKGFYPSDIAVEWESNGQPENNYKTTPPVLDSDGSFFLVSRLTVDKSRWQEGNVFSCSVMHEALHNHYTQKSLSLSLGKRSEVQLLESGGGLVQPGGSLRLSCAASGFTFGNYDMAWVRQAPGKRPEWVSSIDTGGDITHYADSVKGRFTISRDNAKNTLYLQMNSLRPEDTAVYWCATDEEYALGPNEFDYYGQGTLVTVSS
B8: NIgG4F2A1(G4S)1 (Fc fusion)
chain 1: DVQLQESGGGLVQAGGSLKLSCAASGGSLSRYDMGWFRQAPGKEREFVARISWSGDTKYYADAVEGRFAISRDNAQNTVYLQMNSLKPEDTAVYYCAVALYGNRGYYDVNTYSYWGQGTRVTVSGGGGSGPPCPPCPAPEFLGGPSVFLFPPKPKDTLMISRTPEVTCVVVDVSQEDPEVQFNWYVDGVEVHNAKTKPREEQFNSTYRVVSVLTVLHQDWLNGKEYKCKVSNKGLPSSIEKTISKAKGQPREPQVYTLPPCQEEMTKNQVSLWCLVKGFYPSDIAVEWESNGQPENNYKTTPPVLDSDGSFFLYSRLTVDKSRWQEGNVFSCSVMHEALHNHYTQKSLSLSLGK
chain 2: EVQLLESGGGLVQPGGSLRLSCAASGFTFGNYDMAWVRQAPGKRPEWVSSIDTGGDITHYADSVKGRFTISRDNAKNTLYLQMNSLRPEDTAVYWCATDEEYALGPNEFDYYGQGTLVTVSSGGGGSGPPCPPCPAPEFLGGPSVFLFPPKPKDTLMISRTPEVTCVVVDVSQEDPEVQFNWYVDGVEVHNAKTKPREEQFNSTYRVVSVLTVLHQDWLNGKEYKCKVSNKGLPSSIEKTISKAKGQPREPQVCTLPPSQEEMTKNQVSLSCAVKGFYPSDIAVEWESNGQPENNYKTTPPVLDSDGSFFLVSRLTVDKSRWQEGNVFSCSVMHEALHNHYTQKSLSLSLGK

One may read the EC50 as the concentration needed to bring the measured effect to its halfway point.

In the experiment the target is mixture of three Der p 2 specific recombinant human IgE clones H10, H12, P4E (human) (UniProt P01854). The experiment in a line: RBL-SX38 IgE displacement, FACS.
Chain of mixture of three Der p 2 specific recombinant human IgE clones H10, H12, P4E (human) (P01854 other isoform, or with tags, fused parts or gaps): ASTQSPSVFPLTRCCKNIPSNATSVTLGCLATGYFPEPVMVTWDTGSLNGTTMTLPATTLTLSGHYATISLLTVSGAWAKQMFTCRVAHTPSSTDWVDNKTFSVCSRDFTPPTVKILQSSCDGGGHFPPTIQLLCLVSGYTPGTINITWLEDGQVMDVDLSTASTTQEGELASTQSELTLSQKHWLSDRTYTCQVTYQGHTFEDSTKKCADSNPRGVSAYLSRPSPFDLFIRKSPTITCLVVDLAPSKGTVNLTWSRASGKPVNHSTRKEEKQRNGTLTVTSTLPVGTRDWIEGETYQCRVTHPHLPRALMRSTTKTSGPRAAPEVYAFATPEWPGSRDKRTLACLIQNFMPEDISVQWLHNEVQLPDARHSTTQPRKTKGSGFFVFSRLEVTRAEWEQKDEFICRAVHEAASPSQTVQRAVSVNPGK
With B1, the Max effect/effect 1 µM stood at 0%.
As to B2, the EC50 was found to be 2 nM and the Max effect/effect 1 µM is 95%.
With B3, the EC50 was found to be 2 nM and the Max effect/effect 1 µM came out at 88%.
As to B4, the concentration for a half-maximal effect (EC50) stood at 2 nM and the Max effect/effect 1 µM was determined as 94%.
For B5, the Max effect/effect 1 µM was determined as 8%.
On the same count and under the same terms, the figure for B6 is 18%.
With B7, the Max effect/effect 1 µM came out at 3%.
As to B8, the EC50 is 2 nM and the Max effect/effect 1 µM worked out at 92%.
